# In patent publication US20160009813A1 (Memorial Sloan Kettering, published 2016):
# B1: 1928z chimeric antigen receptor (CD19-specific second-generation CAR: SJ25C1-derived scFv, CD28, CD3 zeta) (receptor)
# chain: EVKLQQSGAELVRPGSSVKISCKASGYAFSSYWMNWVKQRPGQGLEWIGQIYPGDGDTNYNGKFKGQATLTADKSSSTAYMQLSGLTSEDSAVYFCARKTISSVVDFYFDYWGQGTTVTVSSGGGGSGGGGSGGGGSDIELTQSPKFMSTSVGDRVSVTCKASQNVGTNVAWYQQKPGQSPKPLIYSATYRNSGVPDRFTGSGSGTDFTLTITNVQSKDLADYFCQQYNRYPYTSGGGTKLEIKRAAAIEVMYPPPYLDNEKSNGTIIHVKGKHLCPSPLFPGPSKPFWVLVVVGGVLACYSLLVTVAFIIFWVRSKRSRLLHSDYMNMTPRRPGPTRKHYQPYAPPRDFAAYRSRVKFSRSAEPPAYQQGQNQLYNELNLGRREEYDVLDKRRGRDPEMGGKPRRKNPQEGLYNELQKDKMAEAYSEIGMKGERRRGKGHDGLYQGLSTATKDTYDALHMQALPPR
# Biological target: T1, human CD19 (human, UniProt P15391 20-556)
# T1 sequence (looked up): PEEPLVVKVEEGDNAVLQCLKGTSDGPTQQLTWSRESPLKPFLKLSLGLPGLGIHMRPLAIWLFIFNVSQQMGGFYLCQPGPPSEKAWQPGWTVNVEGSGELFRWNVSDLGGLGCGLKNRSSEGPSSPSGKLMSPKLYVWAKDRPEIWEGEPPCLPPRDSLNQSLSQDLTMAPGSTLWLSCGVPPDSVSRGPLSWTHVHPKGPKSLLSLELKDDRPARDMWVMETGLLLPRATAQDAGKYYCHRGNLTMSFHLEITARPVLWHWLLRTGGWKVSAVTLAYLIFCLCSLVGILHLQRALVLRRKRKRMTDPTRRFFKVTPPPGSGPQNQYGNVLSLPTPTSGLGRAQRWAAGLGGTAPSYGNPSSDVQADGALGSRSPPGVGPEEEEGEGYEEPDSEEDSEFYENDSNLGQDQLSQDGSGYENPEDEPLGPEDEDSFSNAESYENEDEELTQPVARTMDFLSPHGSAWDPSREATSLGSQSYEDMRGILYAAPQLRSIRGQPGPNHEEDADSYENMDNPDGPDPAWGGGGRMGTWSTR
# Test: cell-based or functional assay
binder,measurement,value
B1,expansion after one stimulation with 3T3-CD19 cells (mean),20 fold
same,expansion after three weekly stimulations with 3T3-CD19 cells,~1000 fold
